From US20240247043A1 (WUHAN YZY BIOPHARMA, published 2024) come the findings set out here.

One may read the Kd as a measure of binding affinity in units of concentration.

First the molecules themselves.
B6: human FGL1-His antigen (ACRO, FG1-H52Hy) (ligand, UniProt Q08830 23-312, looked up)
chain: LEDCAQEQMRLRAQVRLLETRVKQQQVKIKQLLQENEVQFLDKGDENTVIDLGSKRQYADCSEIFNDGYKLSGFYKIKPLQSPAEFSVYCDMSDGGGWTVIQRRSDGSENFNRGWKDYENGFGNFVQKHGEYWLGNKNLHFLTTQEDYTLKIDLADFEKNSRYAQYKNFKVGDEKNFYELNIGEYSGTAGDSLAGNFHPEVQWWASHQRMKFSTWDRDHDNYEGNCAEEDQSGWWFNRCHSANLNGVYYSGPYTAKTDNGIVWYTWHGWWYSLKSVVMKIRPNDFIPNVI
notes: Bought His-tagged protein; also called hFGL1; hFGL1 antigen

The target of experiment [1] is B6. Description: ELISA, same method as in Example 3: construct coated, serially diluted human FGL1 added, OD450. For orientation: ELISA stands for enzyme-linked immunosorbent assay.
Experiment [2] concerns the target T1, LAG-3 D1-D2-D3-Fc mutant P207I (UniProt P18627 23-352).
T1 construct: domain: D1-D2-D3; also called LAG-3 D1-D2-D3-Linker-Fc P207I
Description: procedures of Examples 2-4 repeated; method not told here.

The target of experiment [3] is T2, LAG-3 D1-D2-D3-Fc mutant M212A (UniProt P18627 23-352).
T2 construct: domain: D1-D2-D3; also called LAG-3 D1-D2-D3-Linker-Fc M212A
The experiment is described as above.

Experiment [4] deals with T3, LAG-3 D1-D2-D3-Fc mutant E201D (UniProt P18627 23-352).
T3 construct: domain: D1-D2-D3; also called LAG-3 D1-D2-D3-Linker-Fc E201D
Described as above.

Experiment [5] addresses T4, LAG-3 D1-D2-D3-Fc mutant E201G (UniProt P18627 23-352).
T4 construct: domain: D1-D2-D3; also called LAG-3 D1-D2-D3-Linker-Fc E201G
The experiment is described as above.

The target in experiment [6] is T5, Y103-4A (LAG3 D1-D2-D3-D4-Fab, anti-PD-L1 Fab) (human).
T5 construct: Dimer of LAG-3-Linker3-VL-CL and LAG-3-Linker3-VH-CH1; the Fab is specific for PD-L1
Description: Biacore SPR, antigen amine-coupled on CM5 chip, 1:1 fit. In general terms: SPR reads the build-up and loss of mass on a sensor chip optically.

Experiment [7] has as its target T6, Y103-7A (LAG3 D1-D2-Fab, anti-PD-L1 Fab) (human).
T6 construct: Dimer of LAG-3-Linker3-VL-CL and LAG-3-Linker3-VH-CH1; the Fab is specific for PD-L1
The experiment is described as above.

B1: LAG-3 D1-D2-LZ wild type W1161-LZ (other)
chain 1: LQPGAEVPVVWAQEGAPAQLPCSPTIPLQDLSLLRRAGVTWQHQPDSGPPAAAPGHPLAPGPHPAAPSSWGPRPRRYTVLSVGPGGLRSGRLPLQPRVQLDERGRQRGDFSLWLRPARRADAGEYRAAVHLRDRALSCRLRLRLGQASMTASPPGSLRASDWVILNCSFSRPDRPASVHWFRNRGQGRVPVRESPHHHLAESFLFLPQVSPMDSGPWGCILTYRDGFNVSIMYNLTVLGGGGGSGGGGSEPKSSDKTHTCPPCPRIARLEEKVKTLKAQNSELASTANMLREQVAQLKQKVMNHHHHHH
chain 2: LQPGAEVPVVWAQEGAPAQLPCSPTIPLQDLSLLRRAGVTWQHQPDSGPPAAAPGHPLAPGPHPAAPSSWGPRPRRYTVLSVGPGGLRSGRLPLQPRVQLDERGRQRGDFSLWLRPARRADAGEYRAAVHLRDRALSCRLRLRLGQASMTASPPGSLRASDWVILNCSFSRPDRPASVHWFRNRGQGRVPVRESPHHHLAESFLFLPQVSPMDSGPWGCILTYRDGFNVSIMYNLTVLGGGGGSGGGGSEPKSSDKTHTCPPCPLTDTLQAETDQLEDEKSALQTEIANLLKEKEKLEFILAAHHHHHH
notes: Leucine zipper dimer of D1-D2-Linker2-c-JUN-His and D1-D2-Linker2-c-FOS-His
Turning to B1, the binding result in experiment [1] is “binds”.

B2: LAG-3 D1-D2-LZ mutant WS331-LZ (P195A) (other)
chain 1: LQPGAEVPVVWAQEGAPAQLPCSPTIPLQDLSLLRRAGVTWQHQPDSGPPAAAPGHPLAPGPHPAAPSSWGPRPRRYTVLSVGPGGLRSGRLPLQPRVQLDERGRQRGDFSLWLRPARRADAGEYRAAVHLRDRALSCRLRLRLGQASMTASPPGSLRASDWVILNCSFSRPDRPASVHWFRNRGQGRVPVRESAHHHLAESFLFLPQVSPMDSGPWGCILTYRDGFNVSIMYNLTVLGGGGGSGGGGSEPKSSDKTHTCPPCPRIARLEEKVKTLKAQNSELASTANMLREQVAQLKQKVMNHHHHHH
chain 2: LQPGAEVPVVWAQEGAPAQLPCSPTIPLQDLSLLRRAGVTWQHQPDSGPPAAAPGHPLAPGPHPAAPSSWGPRPRRYTVLSVGPGGLRSGRLPLQPRVQLDERGRQRGDFSLWLRPARRADAGEYRAAVHLRDRALSCRLRLRLGQASMTASPPGSLRASDWVILNCSFSRPDRPASVHWFRNRGQGRVPVRESAHHHLAESFLFLPQVSPMDSGPWGCILTYRDGFNVSIMYNLTVLGGGGGSGGGGSEPKSSDKTHTCPPCPLTDTLQAETDQLEDEKSALQTEIANLLKEKEKLEFILAAHHHHHH
notes: Leucine zipper dimer; D2 entry already carries P195A; copies: 1 + 1
For B2, the binding result in experiment [1] is “binds”.

B3: LAG-3 D1-D2-LZ mutant WS323-LZ (N183A) (other)
chain 1: LQPGAEVPVVWAQEGAPAQLPCSPTIPLQDLSLLRRAGVTWQHQPDSGPPAAAPGHPLAPGPHPAAPSSWGPRPRRYTVLSVGPGGLRSGRLPLQPRVQLDERGRQRGDFSLWLRPARRADAGEYRAAVHLRDRALSCRLRLRLGQASMTASPPGSLRASDWVILNCSFSRPDRPASVHWFRARGQGRVPVRESPHHHLAESFLFLPQVSPMDSGPWGCILTYRDGFNVSIMYNLTVLGGGGGSGGGGSEPKSSDKTHTCPPCPRIARLEEKVKTLKAQNSELASTANMLREQVAQLKQKVMNHHHHHH
chain 2: LQPGAEVPVVWAQEGAPAQLPCSPTIPLQDLSLLRRAGVTWQHQPDSGPPAAAPGHPLAPGPHPAAPSSWGPRPRRYTVLSVGPGGLRSGRLPLQPRVQLDERGRQRGDFSLWLRPARRADAGEYRAAVHLRDRALSCRLRLRLGQASMTASPPGSLRASDWVILNCSFSRPDRPASVHWFRARGQGRVPVRESPHHHLAESFLFLPQVSPMDSGPWGCILTYRDGFNVSIMYNLTVLGGGGGSGGGGSEPKSSDKTHTCPPCPLTDTLQAETDQLEDEKSALQTEIANLLKEKEKLEFILAAHHHHHH
notes: Leucine zipper dimer; D2 entry already carries N183A; copies: 1 + 1
Regarding B3, in experiment [1], the binding result was “binds”.

B4: LAG-3 D1-D2-LZ mutant WS451-LZ (E201G) (other)
chain 1: LQPGAEVPVVWAQEGAPAQLPCSPTIPLQDLSLLRRAGVTWQHQPDSGPPAAAPGHPLAPGPHPAAPSSWGPRPRRYTVLSVGPGGLRSGRLPLQPRVQLDERGRQRGDFSLWLRPARRADAGEYRAAVHLRDRALSCRLRLRLGQASMTASPPGSLRASDWVILNCSFSRPDRPASVHWFRNRGQGRVPVRESPHHHLAGSFLFLPQVSPMDSGPWGCILTYRDGFNVSIMYNLTVLGGGGGSGGGGSEPKSSDKTHTCPPCPRIARLEEKVKTLKAQNSELASTANMLREQVAQLKQKVMNHHHHHH
chain 2: LQPGAEVPVVWAQEGAPAQLPCSPTIPLQDLSLLRRAGVTWQHQPDSGPPAAAPGHPLAPGPHPAAPSSWGPRPRRYTVLSVGPGGLRSGRLPLQPRVQLDERGRQRGDFSLWLRPARRADAGEYRAAVHLRDRALSCRLRLRLGQASMTASPPGSLRASDWVILNCSFSRPDRPASVHWFRNRGQGRVPVRESPHHHLAGSFLFLPQVSPMDSGPWGCILTYRDGFNVSIMYNLTVLGGGGGSGGGGSEPKSSDKTHTCPPCPLTDTLQAETDQLEDEKSALQTEIANLLKEKEKLEFILAAHHHHHH
notes: Leucine zipper dimer; D2 entry already carries E201G; copies: 1 + 1
B4: the binding result in experiment [1] is recorded as “binds”.

B5: LAG-3 D1-D2-LZ mutant WS447-LZ (E201D) (other)
chain 1: LQPGAEVPVVWAQEGAPAQLPCSPTIPLQDLSLLRRAGVTWQHQPDSGPPAAAPGHPLAPGPHPAAPSSWGPRPRRYTVLSVGPGGLRSGRLPLQPRVQLDERGRQRGDFSLWLRPARRADAGEYRAAVHLRDRALSCRLRLRLGQASMTASPPGSLRASDWVILNCSFSRPDRPASVHWFRNRGQGRVPVRESPHHHLADSFLFLPQVSPMDSGPWGCILTYRDGFNVSIMYNLTVLGGGGGSGGGGSEPKSSDKTHTCPPCPRIARLEEKVKTLKAQNSELASTANMLREQVAQLKQKVMNHHHHHH
chain 2: LQPGAEVPVVWAQEGAPAQLPCSPTIPLQDLSLLRRAGVTWQHQPDSGPPAAAPGHPLAPGPHPAAPSSWGPRPRRYTVLSVGPGGLRSGRLPLQPRVQLDERGRQRGDFSLWLRPARRADAGEYRAAVHLRDRALSCRLRLRLGQASMTASPPGSLRASDWVILNCSFSRPDRPASVHWFRNRGQGRVPVRESPHHHLADSFLFLPQVSPMDSGPWGCILTYRDGFNVSIMYNLTVLGGGGGSGGGGSEPKSSDKTHTCPPCPLTDTLQAETDQLEDEKSALQTEIANLLKEKEKLEFILAAHHHHHH
notes: Leucine zipper dimer; D2 entry already carries E201D; copies: 1 + 1
On to B5, for which the binding result in experiment [1] was “binds”. Regarding B6, the binding result in experiment [2], in experiment [3], in experiment [4] and in experiment [5] was “binds” throughout. Moreover, the dissociation constant (Kd) was found to be 0.929 nM in experiment [6] and 2.46 nM in experiment [7].
